How the values were obtained:
Upf1-HD-His6 = target: T1, Upf1-HD-His6 (Saccharomyces cerevisiae, UniProt P30771 221-851); test: ITC; no nucleotide; 5 mM Mg2+; ITC: 100 mM Bis-Tris pH 6.5, 133 mM NaCl, 5 mM MgCl2, 5 mM 2-mercaptoethanol, 20 C; protein 20-30 uM in cell titrated with 230-280 uM RNA; conditions: protein: recombinant; tags: C-terminal His6; single strand
T1 sequence: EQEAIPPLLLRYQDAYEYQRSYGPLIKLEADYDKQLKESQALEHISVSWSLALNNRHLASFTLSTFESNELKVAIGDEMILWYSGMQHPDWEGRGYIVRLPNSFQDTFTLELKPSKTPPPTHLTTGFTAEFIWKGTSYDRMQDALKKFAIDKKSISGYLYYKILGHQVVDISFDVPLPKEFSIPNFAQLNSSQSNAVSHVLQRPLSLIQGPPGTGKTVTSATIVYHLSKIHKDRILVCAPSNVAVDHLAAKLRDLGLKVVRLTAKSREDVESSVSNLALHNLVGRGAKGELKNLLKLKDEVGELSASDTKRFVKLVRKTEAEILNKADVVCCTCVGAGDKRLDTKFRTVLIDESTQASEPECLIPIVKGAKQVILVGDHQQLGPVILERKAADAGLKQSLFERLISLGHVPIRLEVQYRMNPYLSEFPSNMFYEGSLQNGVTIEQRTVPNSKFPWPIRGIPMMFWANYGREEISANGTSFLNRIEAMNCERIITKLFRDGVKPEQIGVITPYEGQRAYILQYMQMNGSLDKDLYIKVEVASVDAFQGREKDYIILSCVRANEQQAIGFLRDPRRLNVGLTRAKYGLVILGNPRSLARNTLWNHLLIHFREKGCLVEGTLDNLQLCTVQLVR

His6-ZZ-Nmd4 FL = target: T2, His6-ZZ-Nmd4 FL (Saccharomyces cerevisiae, UniProt Q12129 1-218); test: ITC; 5 mM Mg2+; ITC: 100 mM Bis-Tris pH 6.5, 133 mM NaCl, 5 mM MgCl2, 5 mM 2-mercaptoethanol, 20 C; protein 20-30 uM in cell titrated with 230-280 uM RNA; conditions: protein: recombinant; tags: N-terminal His6-ZZ (3C cleavable, kept for ITC); single strand
T2 sequence: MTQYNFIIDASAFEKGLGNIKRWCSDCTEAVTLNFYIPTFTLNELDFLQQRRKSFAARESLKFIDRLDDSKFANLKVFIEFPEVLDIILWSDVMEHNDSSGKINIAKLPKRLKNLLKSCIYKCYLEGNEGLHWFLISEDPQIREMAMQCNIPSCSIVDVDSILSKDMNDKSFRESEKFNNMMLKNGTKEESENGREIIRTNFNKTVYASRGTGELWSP

[1] = target: T3, His6-ZZ-Nmd4 FL;Upf1-HD-His6 (Saccharomyces cerevisiae;Saccharomyces …, UniProt Q12129;P30771 1-218;221-851, |); test: ITC; preformed Nmd4/Upf1-HD complex; no nucleotide; 5 mM Mg2+; n 0.47; ITC: 100 mM Bis-Tris pH 6.5, 133 mM NaCl, 5 mM MgCl2, 5 mM 2-mercaptoethanol, 20 C; protein 20-30 uM in cell titrated with 230-280 uM RNA; conditions: protein: recombinant;recombinant; tags: N-terminal His6-ZZ (3C cleavable, kept for ITC);C-terminal His6; copies: 1;1; single strand
T3 sequence 1: T2 sequence
T3 sequence 2: T1 sequence

[2] = target: T4, Upf1-HD-His6 (S. cerevisiae Upf1 helicase domain, residues 221 to 851) (S. cerevisiae, UniProt P30771 221-851); test: ITC; His6-ZZ-Nmd4 proteins (260 μM full-length and « arm », 330 μM PIN) or His6-ZZ (277 μM) injected into Upf1-HD-His6 (30 to 35 μM); 20°C; 100 mM Bis-Tris pH 6.5, 200 mM NaCl, 5 mM MgCl2, 5 mM 2-mercaptoethanol; one-binding-site model; conditions: both partners purified
T4 construct: Upf1, S. cerevisiae, helicase domain, residues 221 to 851; Used in ITC and, by the buffer D200 preparation, in the ATPase assays; also called yeast Upf1 helicase domain; source: E. coli BL21 (DE3) Gold, purified (TALON, HiTrap Heparin, S200 SEC); not shown: His6, C-terminal, kept
T4 sequence (looked up): T1 sequence

Binder: UUUUUUUUUUUUUUUUUUUUUUUUUUUUUU (ssRNA) [RNA poly(U)30]
- Kd (Upf1-HD-His6): 1.03 ± 0.28 µM
- Kd (His6-ZZ-Nmd4 FL): 8.1 ± 2.95 µM
- Kd [1]: 0.44 ± 0.21 µM

B1: His6-ZZ-Nmd4 « arm » (residues 168 to 218) (domain or fragment, S. cerevisiae, UniProt Q12129 168-218, looked up)
chain: NDKSFRESEKFNNMMLKNGTKEESENGREIIRTNFNKTVYASRGTGELWSP
notes: Nmd4, S. cerevisiae, C-terminal « arm », residues 168 to 218; also called « arm » region; source: E. coli BL21 (DE3) Gold, purified; not shown: His6, N-terminal, kept; ZZ (tandem Z-domain of S. aureus protein A), N-terminal, kept
- Kd [2]: 1.96 µM
- dH [2]: -12.4 kcal/mol
- stoichiometry N [2]: 0.98

B2: His6-ZZ-Nmd4 full-length protein (S. cerevisiae) (natural protein, UniProt Q12129 1-218, looked up)
chain: T2 sequence
notes: also called His6-ZZ-Nmd4 FL; full-length Nmd4; source: E. coli BL21 (DE3) Gold, purified (Ni-NTA, HiTrap Heparin, S75 SEC); not shown: His6, N-terminal, kept; ZZ (tandem Z-domain of S. aureus protein A), N-terminal, kept
- Kd [2]: 2.1 µM
- dH [2]: -14.8 kcal/mol
- stoichiometry N [2]: 1.08

Reference: PMC11463774, “Structure of the Nmd4-Upf1 complex supports conservation of the nonsense-mediated mRNA decay pathway between yeast and humans” (PLOS Biology, 2024)
